Reference: US20160159928A1
Where “and” joins values, the source holds several entries; their conditions need not be identical. Equal values may be shown once. Read-outs that look alike come from different tables or passages of the source. One block for each substance: values may come before it.

Legend:
Test in all cases: cell-based or functional assay
[1] = target: CXCR1 (UniProt P25024)
[2] = target: CXCR1 (UniProt P25024); remark: listed apart in the source
[3] = target: Kv1.3 (human) (UniProt P22001)
Sequence of Kv1.3 (human) (P22001 whole entry): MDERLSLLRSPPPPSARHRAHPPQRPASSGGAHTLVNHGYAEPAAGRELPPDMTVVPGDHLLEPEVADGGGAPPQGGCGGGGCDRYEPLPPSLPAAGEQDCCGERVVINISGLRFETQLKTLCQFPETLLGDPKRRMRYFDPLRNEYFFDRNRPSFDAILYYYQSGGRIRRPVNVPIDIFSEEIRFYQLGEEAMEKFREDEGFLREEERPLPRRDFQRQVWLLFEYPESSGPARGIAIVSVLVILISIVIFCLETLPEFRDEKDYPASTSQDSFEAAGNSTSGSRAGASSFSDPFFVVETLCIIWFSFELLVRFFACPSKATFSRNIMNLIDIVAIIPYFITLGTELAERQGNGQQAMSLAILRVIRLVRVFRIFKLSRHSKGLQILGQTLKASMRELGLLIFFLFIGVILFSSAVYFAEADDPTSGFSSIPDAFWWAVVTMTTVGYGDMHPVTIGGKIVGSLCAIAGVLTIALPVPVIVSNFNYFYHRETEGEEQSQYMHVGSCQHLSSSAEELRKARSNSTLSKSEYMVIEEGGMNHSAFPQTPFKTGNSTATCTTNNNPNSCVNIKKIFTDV

Sequence of CXCR1 (P25024 whole entry): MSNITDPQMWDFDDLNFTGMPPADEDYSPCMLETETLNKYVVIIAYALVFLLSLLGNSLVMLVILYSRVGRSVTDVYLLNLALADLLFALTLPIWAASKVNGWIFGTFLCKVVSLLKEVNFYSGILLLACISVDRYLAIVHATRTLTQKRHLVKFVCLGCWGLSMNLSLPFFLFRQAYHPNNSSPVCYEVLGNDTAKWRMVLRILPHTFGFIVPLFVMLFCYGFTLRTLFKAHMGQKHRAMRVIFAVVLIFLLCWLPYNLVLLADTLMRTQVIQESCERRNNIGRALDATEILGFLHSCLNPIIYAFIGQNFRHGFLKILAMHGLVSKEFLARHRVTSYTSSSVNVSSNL
Sequence of interleukin 8 (soluble) (P10145 28-99 limits assumed): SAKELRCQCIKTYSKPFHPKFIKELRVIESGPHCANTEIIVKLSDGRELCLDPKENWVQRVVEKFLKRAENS

luminescence at 0.4 nM IL-8 domains [1]: 4930
luminescence at 1.6 nM IL-8 domains [1]: 8730
luminescence at 6.25 nM IL-8 domains [1]: 22300
luminescence at 25 nM IL-8 domains [1]: 42200
luminescence at 100 nM IL-8 domains [1]: 54000
average RLU at 0.01 nM [2]: 440 RLU
average RLU at 0.08 nM [2]: 504 RLU
average RLU at 0.23 nM [2]: 940 RLU
average RLU at 0.69 nM [2]: 1940 RLU
average RLU at 2.06 nM [2]: 4110 RLU
average RLU at 6.17 nM [2]: 5870 RLU
average RLU at 18.52 nM [2]: 7300 RLU
average RLU at 31.5 nM [2]: 55500 RLU
average RLU at 55.56 nM [2]: 7360 RLU
average RLU at 166.67 nM [2]: 6770 RLU
average RLU at 500.00 nM [2]: 5720 RLU
luminescence at 0.1 nM IL-8 domains [2]: 4200
luminescence at 0.4 nM IL-8 domains [2]: 6530
luminescence at 0.5 nM IL-8 domains [2]: 9790
luminescence at 1.6 nM IL-8 domains [2]: 12200
luminescence at 2.2 nM IL-8 domains [2]: 25700
luminescence at 6.25 nM IL-8 domains [2]: 28600
luminescence at 9.9 nM IL-8 domains [2]: 50300
luminescence at 25 nM IL-8 domains [2]: 50500
luminescence at 44 nM IL-8 domains [2]: 54100
luminescence at 100 nM IL-8 domains [2]: 70200
luminescence at 200 nM IL-8 domains [2]: 50400
Substance: interleukin 8 (soluble) (from UniProt P10145 28-99) (ligand)

average RLU at 0.001 nM IgG [2]: 7500 RLU
average RLU at 0.004 nM IgG [2]: 7390 RLU
average RLU at 0.013 nM IgG [2]: 7050 RLU
average RLU at 0.040 nM IgG [2]: 6970 RLU
average RLU at 0.120 nM IgG [2]: 7330 RLU
average RLU at 0.359 nM IgG [2]: 6690 RLU
average RLU at 1.076 nM IgG [2]: 7180 RLU
average RLU at 3.228 nM IgG [2]: 7030 RLU
average RLU at 9.685 nM IgG [2]: 7170 RLU
average RLU at 29.056 nM IgG [2]: 7100 RLU
average RLU at 87.167 nM IgG [2]: 7140 RLU
average RLU at 261.500 nM IgG [2]: 7540 RLU
Substance: IgG VH4-4 CDR3 BsaI (lacking the IL-8 insert) (antibody)

IL-2 ELISA (A450), Donor 1, [IgG] 0.01 nM [3]: 2 A450 and 2.15 A450
IL-2 ELISA (A450), Donor 1, [IgG] 0.75 nM [3]: 2.11 A450 and 2.04 A450
IL-2 ELISA (A450), Donor 1, [IgG] 68 nM [3]: 1.48 A450 and 1.55 A450
IL-2 ELISA (A450), Donor 2, [IgG] 0.01 nM [3]: 1.61 A450 and 1.48 A450
IL-2 ELISA (A450), Donor 2, [IgG] 0.75 nM [3]: 1.56 A450 and 1.52 A450
IL-2 ELISA (A450), Donor 2, [IgG] 68 nM [3]: 1.5 A450 and 1.37 A450
TNF-α ELISA (A450), Donor 1, [IgG] 0.01 nM [3]: 1.62 A450 and 1.66 A450
TNF-α ELISA (A450), Donor 1, [IgG] 0.75 nM [3]: 1.69 A450 and 1.65 A450
TNF-α ELISA (A450), Donor 1, [IgG] 68 nM [3]: 1.02 A450 and 1.13 A450
TNF-α ELISA (A450), Donor 2, [IgG] 0.01 nM [3]: 2.07 A450 and 1.77 A450
TNF-α ELISA (A450), Donor 2, [IgG] 0.75 nM [3]: 2.04 A450 and 1.85 A450
TNF-α ELISA (A450), Donor 2, [IgG] 68 nM [3]: 1.88 A450 and 1.54 A450
Substance: Negative Control IgG (antibody)

IL-2 ELISA (A450); Donor 1; 150 nM IgG [3]: 0.445 A450
IL-2 ELISA (A450); Donor 2; 150 nM IgG [3]: 0.355 A450
TNF-α ELISA (A450); Donor 1; 150 nM IgG [3]: 0.11 A450
TNF-α ELISA (A450); Donor 2; 150 nM IgG [3]: 0.058 A450
Substance: BLV1H12 (antibody)
